From the supplement of paper PMC10065799, “High-throughput profiling of sequence recognition by tyrosine kinases and SH2 domains using bacterial peptide display” (eLife, 2023)

How the values were obtained:
AncSZ = assay: phosphorylation enrichment, bacterial display (enrichment ratio); higher = better substrate or ligand; peptides without Tyr show the background
EPHB1 = EPHB1 (UniProt P54762); assay: as above
EPHB2 = EPHB2 (UniProt P29323); assay: as above
FGFR1 = FGFR1 (UniProt P11362); assay: as above
FGFR3 = FGFR3 (UniProt P22607); assay: as above
Fer (mouse) = assay: as above
Fes = Fes (UniProt P07332); assay: as above
Fyn = Fyn (UniProt P06241); assay: as above
Hck = Hck (UniProt P08631); assay: as above
Jak2 = Jak2 (UniProt O60674); assay: as above
MERTK = MERTK (UniProt Q12866); assay: as above
c-Abl (mouse) = assay: as above
c-Src = assay: as above
Grb2 SH2 = Grb2 SH2 (UniProt P62993); assay: SH2 binding enrichment of the phosphorylated peptide, bacterial display (enrichment ratio); higher = better substrate or ligand; peptides without Tyr show the background
SHP2-C SH2 = assay: as above
c-Src SH2 = assay: as above
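Throughout, for SH2 binding enrichment of the phosphorylated peptide, bacterial display: peptide library displayed on the E. coli surface as eCPX fusions, selected cells deep-sequenced, score is each peptide's frequency after selection divided by its frequency in the input.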
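Throughout, for phosphorylation enrichment, bacterial display: 11-residue human phosphosite peptides and single-mutation variants displayed on the E. coli surface, counted by deep sequencing, each peptide's frequency after selection divided by its frequency in the unselected input library; frequency after pTyr selection over input frequency; kinase dosed for 20-30% of maximal phosphorylation in three min.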

FGFR1, sequence (P11362 whole entry, looked up): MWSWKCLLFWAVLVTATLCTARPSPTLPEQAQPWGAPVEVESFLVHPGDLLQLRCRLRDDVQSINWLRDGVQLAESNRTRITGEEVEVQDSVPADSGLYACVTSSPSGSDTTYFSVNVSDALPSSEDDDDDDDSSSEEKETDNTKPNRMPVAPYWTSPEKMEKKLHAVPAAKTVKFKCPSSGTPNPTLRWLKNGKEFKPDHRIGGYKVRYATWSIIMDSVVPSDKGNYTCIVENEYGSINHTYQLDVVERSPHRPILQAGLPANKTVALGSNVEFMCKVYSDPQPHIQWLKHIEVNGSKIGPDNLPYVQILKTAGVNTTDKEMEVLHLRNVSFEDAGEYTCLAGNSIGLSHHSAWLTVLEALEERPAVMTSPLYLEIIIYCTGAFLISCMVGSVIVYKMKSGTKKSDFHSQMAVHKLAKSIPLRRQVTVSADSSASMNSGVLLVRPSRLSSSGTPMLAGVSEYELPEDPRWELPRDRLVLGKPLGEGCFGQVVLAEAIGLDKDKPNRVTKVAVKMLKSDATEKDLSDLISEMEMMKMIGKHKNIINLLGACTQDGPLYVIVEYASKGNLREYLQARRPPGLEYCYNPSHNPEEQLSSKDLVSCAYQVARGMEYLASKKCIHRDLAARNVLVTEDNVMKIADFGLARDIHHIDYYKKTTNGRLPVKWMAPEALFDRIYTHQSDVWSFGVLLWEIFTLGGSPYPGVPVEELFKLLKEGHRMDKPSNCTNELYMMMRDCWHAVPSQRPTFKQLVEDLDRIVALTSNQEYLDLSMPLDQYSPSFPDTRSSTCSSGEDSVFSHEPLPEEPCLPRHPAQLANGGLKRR
Hck, sequence (P08631 whole entry, looked up): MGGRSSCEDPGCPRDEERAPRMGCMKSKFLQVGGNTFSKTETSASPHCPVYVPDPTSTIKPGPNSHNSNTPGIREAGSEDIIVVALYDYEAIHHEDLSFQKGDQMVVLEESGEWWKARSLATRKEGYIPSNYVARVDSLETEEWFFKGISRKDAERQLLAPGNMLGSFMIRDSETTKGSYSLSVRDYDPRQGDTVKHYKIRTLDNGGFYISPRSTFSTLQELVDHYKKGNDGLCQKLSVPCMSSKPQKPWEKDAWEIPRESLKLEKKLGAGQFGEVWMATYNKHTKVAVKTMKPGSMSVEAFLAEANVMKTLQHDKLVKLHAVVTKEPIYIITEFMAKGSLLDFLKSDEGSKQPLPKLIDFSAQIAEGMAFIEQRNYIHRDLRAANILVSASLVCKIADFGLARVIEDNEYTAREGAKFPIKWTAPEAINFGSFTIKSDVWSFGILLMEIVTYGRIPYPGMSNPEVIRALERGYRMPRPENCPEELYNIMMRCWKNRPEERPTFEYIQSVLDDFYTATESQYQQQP
Fyn, sequence (P06241 whole entry, looked up): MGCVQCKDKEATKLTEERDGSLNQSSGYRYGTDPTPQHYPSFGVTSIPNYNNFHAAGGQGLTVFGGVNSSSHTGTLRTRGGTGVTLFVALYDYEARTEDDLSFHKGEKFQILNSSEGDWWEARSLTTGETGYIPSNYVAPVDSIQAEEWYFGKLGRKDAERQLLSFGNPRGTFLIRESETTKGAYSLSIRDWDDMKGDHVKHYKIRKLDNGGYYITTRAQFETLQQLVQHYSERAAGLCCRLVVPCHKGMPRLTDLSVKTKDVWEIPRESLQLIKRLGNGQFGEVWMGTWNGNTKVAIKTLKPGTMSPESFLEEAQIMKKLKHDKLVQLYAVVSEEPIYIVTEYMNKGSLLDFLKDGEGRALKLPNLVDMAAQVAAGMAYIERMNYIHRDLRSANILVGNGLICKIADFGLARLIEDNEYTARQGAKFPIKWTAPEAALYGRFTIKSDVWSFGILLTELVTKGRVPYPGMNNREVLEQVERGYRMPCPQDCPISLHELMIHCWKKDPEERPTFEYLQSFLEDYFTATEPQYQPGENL
EPHB2, sequence (P29323 whole entry, looked up): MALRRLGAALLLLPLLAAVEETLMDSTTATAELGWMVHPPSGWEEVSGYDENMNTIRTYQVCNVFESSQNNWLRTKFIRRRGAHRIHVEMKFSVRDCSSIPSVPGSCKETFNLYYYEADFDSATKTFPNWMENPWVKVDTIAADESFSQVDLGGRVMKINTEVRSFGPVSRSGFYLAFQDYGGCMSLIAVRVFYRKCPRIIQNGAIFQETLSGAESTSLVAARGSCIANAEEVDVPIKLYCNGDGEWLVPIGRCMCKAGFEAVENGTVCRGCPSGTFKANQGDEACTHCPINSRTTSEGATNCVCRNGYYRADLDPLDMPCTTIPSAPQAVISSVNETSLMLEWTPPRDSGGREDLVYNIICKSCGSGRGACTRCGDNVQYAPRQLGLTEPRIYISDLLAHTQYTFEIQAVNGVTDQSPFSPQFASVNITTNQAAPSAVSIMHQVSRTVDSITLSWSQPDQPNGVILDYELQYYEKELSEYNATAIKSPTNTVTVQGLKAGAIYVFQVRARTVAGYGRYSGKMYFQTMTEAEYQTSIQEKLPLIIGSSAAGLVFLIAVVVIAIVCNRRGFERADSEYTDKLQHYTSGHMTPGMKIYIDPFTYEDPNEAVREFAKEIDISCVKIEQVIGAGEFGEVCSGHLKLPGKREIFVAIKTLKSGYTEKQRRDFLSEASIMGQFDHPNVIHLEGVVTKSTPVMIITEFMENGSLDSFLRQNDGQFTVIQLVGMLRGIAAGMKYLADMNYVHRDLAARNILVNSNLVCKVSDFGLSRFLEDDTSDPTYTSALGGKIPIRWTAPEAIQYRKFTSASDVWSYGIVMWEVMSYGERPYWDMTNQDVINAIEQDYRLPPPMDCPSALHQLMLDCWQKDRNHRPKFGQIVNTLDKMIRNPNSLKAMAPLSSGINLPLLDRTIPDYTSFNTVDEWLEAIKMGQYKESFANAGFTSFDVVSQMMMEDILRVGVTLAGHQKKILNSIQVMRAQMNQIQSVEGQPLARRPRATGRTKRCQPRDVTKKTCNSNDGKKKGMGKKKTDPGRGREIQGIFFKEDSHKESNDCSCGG
MERTK, sequence (Q12866 whole entry, looked up): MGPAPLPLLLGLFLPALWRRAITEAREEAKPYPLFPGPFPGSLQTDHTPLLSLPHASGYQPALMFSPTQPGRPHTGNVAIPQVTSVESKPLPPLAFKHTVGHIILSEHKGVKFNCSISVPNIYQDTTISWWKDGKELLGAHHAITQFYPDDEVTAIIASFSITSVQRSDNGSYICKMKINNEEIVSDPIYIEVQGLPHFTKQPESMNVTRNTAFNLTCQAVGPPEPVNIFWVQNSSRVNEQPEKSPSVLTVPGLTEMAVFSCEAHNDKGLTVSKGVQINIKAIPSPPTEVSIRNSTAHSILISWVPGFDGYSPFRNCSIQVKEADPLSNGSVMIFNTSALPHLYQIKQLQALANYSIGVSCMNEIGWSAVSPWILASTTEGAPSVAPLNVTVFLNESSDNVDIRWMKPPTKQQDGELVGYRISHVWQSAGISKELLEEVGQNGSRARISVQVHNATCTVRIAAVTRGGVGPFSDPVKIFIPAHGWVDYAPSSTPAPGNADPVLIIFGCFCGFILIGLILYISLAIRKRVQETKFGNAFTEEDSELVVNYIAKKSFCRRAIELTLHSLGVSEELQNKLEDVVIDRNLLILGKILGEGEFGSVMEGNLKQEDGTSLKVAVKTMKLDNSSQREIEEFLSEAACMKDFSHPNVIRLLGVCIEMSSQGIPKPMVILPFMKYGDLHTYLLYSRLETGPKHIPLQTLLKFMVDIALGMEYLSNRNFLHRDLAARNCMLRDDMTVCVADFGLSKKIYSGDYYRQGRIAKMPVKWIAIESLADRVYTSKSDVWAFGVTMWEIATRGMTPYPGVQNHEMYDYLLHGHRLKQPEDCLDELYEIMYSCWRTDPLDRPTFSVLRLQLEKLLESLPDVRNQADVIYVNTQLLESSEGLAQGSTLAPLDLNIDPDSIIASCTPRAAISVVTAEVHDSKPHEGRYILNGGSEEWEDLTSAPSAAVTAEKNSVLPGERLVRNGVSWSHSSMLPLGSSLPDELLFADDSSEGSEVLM
Fes, sequence (P07332 whole entry, looked up): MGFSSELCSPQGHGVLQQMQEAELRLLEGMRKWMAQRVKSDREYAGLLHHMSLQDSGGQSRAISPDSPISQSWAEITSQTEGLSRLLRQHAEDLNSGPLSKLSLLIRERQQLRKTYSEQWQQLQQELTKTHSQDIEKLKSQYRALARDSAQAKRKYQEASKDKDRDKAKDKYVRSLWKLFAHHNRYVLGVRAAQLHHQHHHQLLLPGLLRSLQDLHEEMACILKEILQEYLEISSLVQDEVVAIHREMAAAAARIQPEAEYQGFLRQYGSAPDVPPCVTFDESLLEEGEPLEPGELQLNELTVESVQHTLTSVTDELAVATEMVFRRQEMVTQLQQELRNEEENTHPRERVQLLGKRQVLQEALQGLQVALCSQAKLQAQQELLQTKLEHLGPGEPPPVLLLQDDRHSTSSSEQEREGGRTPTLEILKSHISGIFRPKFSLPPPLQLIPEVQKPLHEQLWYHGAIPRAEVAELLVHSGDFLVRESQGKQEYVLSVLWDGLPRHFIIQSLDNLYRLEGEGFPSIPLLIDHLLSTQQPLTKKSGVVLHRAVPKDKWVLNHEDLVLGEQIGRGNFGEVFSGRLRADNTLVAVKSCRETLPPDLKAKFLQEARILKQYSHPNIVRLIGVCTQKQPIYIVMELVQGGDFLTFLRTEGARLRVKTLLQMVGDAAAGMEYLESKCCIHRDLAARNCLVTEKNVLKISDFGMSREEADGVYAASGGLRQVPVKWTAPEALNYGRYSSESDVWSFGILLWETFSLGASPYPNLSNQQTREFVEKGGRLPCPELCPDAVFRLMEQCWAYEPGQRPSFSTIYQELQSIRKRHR

Sequence	SH2 binding enrichment (Grb2 SH2)	SH2 binding enrichment (SHP2-C SH2)	SH2 binding enrichment (c-Src SH2)	phosphorylation enrichment (AncSZ)	phosphorylation enrichment (EPHB1)	phosphorylation enrichment (EPHB2)	phosphorylation enrichment (FGFR1)	phosphorylation enrichment (FGFR3)	phosphorylation enrichment (Fer (mouse))	phosphorylation enrichment (Fes)	phosphorylation enrichment (Fyn)	phosphorylation enrichment (Hck)	phosphorylation enrichment (Jak2)	phosphorylation enrichment (MERTK)	phosphorylation enrichment (c-Abl (mouse))	phosphorylation enrichment (c-Src)
TWQSMYGCDVG [HLA-B_Y123_L119W]	0.899	0.661	0.684	1.02	0.933	0.63	0.533	0.802	0.548	1.22	0.531	0.498	1.37	0.6	1.03	0.735
TYGVLYKARNK [CDK2_Y19_V18L]	0.962	0.624	0.406	0.539	0.398	0.532	0.394	0.483	0.438	0.691	2.88	2.86	0.565	0.689	0.519	3.29
VAFVYYKSIGP [ADGRL4_Y302]	0.838	0.75	0.574	1.41	0.678	0.653	0.656	0.872	0.658	1.6	0.432	0.524	1.3	0.442	0.907	0.465
VASSLYDIFAR [GLB1_Y294_L297F]	1.02	0.884	0.714	1.09	1.46	1.81	0.637	0.714	3.12	0.948	6.66	8.55	0.927	11.4	1.25	6.38
VDTFWYKLLKR [EPM2A_Y86_F88L]	1.04	0.66	0.646	0.971	0.493	0.548	0.439	0.644	0.456	1.06	0.372	0.331	0.937	0.342	0.748	0.347
VGTKRYMASEV [ACVRL1_Y375_P378S]	1.06	0.599	0.45	0.564	0.406	0.364	0.411	0.333	0.38	0.602	0.4	0.398	0.533	0.389	0.509	0.513
VISNAYVDLAP [HSD17B4_Y602]	0.858	1.21	3.79	0.675	0.436	0.557	0.89	0.653	0.516	0.777	0.428	0.471	0.707	0.589	0.475	0.435
VKKKLYEEIDQ [CYP17A1_Y329]	0.758	0.412	8.78	0.924	0.535	0.541	0.444	0.601	0.372	0.98	0.373	0.493	0.764	0.347	0.66	0.361
VLVSQYEKLDA [AMZ2_Y26_N30D]	0.896	0.602	7.26	0.808	0.561	0.606	0.366	0.589	0.47	0.826	0.489	0.484	0.738	0.462	0.586	0.539
VNFDFYTVNLG [GFPT1_Y367_D366Y_YF]	1.03	0.98	0.632	1.29	0.804	0.772	0.593	0.75	0.758	1.33	3.26	1.81	1.23	1.97	0.762	2.27

Further lines, with some results ahead:

SH2 binding enrichment (Grb2 SH2)	SH2 binding enrichment (SHP2-C SH2)	SH2 binding enrichment (c-Src SH2)	Sequence	phosphorylation enrichment (AncSZ)	phosphorylation enrichment (EPHB1)	phosphorylation enrichment (EPHB2)	phosphorylation enrichment (FGFR1)	phosphorylation enrichment (FGFR3)	phosphorylation enrichment (Fer (mouse))	phosphorylation enrichment (Fes)	phosphorylation enrichment (Fyn)	phosphorylation enrichment (Hck)	phosphorylation enrichment (Jak2)	phosphorylation enrichment (MERTK)	phosphorylation enrichment (c-Abl (mouse))	phosphorylation enrichment (c-Src)
1.08	0.731	4.54	TWEKPYECVQC [ZNF24_Y335_G331W]	0.904	0.521	0.601	0.516	0.648	4.82	0.964	0.489	0.623	0.84	0.492	0.534	0.887
0.702	0.755	0.579	TYGQVYKGPHV [TNIK_Y40_R43P]	0.68	0.586	0.633	0.534	0.468	0.398	0.751	12.4	7.7	0.826	0.618	0.666	9.04
1.22	1.51	1.01	VASIFYTLVIP [OR8K3_Y277]	1.83	0.978	0.769	1.72	1.63	2.79	1.49	0.502	0.661	1.45	5.43	0.882	0.945
1.02	0.98	0.683	VDEERYDIEGK [TNNI3_Y112_A116G]	1.44	0.737	0.74	0.539	0.754	0.561	1.3	0.506	0.623	1.3	0.491	0.896	0.509
0.713	0.682	0.436	VDLIVYLWTNP [TK2_Y181_R183W]	1.15	0.643	0.501	0.483	0.955	0.841	1.29	0.421	0.456	1.21	0.397	0.897	0.423
0.694	0.772	0.415	VGGRIYIDDAL [PKLR_Y218_G222A]	0.86	0.51	0.497	0.542	0.612	0.547	1.06	0.462	0.486	0.767	0.402	0.737	0.419
0.693	0.528	0.454	VNFQPYRKHKF [TEX37_Y28_D24N_YF]	0.546	0.34	0.386	0.365	0.371	0.373	0.545	0.439	0.459	0.408	0.43	0.542	0.431
